Our source for the abundance fitness values is the Human Domainome abundance scans (Beltran et al. 2025).

± gives the uncertainty stated by the source.

To fix the notation:
B1: POU domain, class 2, transcription factor 1, residues 285 to 354; numbered along this chain, P14859 (parent)
chain: LEELEQFAKTFKQRRIKLGFTQGDVGLAMGKLYGNDFSQTTISRFEALNLSFKNMCKLKPLLEKWLNDAE

Variants of B1 are the subject of the data set. Briefly: abundance fitness (aPCA) (normalised: wild type 0, dead -1); higher = more abundant; growth selection in yeast, the domain comes from the species named. To be noted: Homo sapiens.
Consider LEELEQFAKTFKQRRIKLGFTQGRVGLAMGKLYGNDFSQTTISRFEALNLSFKNMCKLKPLLEKWLNDAE [D24R], for which the abundance fitness was -0.151 ± 0.026. As for LEELEQFAKTFKQRRIKLGFTQGLVGLAMGKLYGNDFSQTTISRFEALNLSFKNMCKLKPLLEKWLNDAE [D24L], the figure is -0.192 ± 0.02; as for LEELEQFAKTFKQRRIKLGFTQGDVPLAMGKLYGNDFSQTTISRFEALNLSFKNMCKLKPLLEKWLNDAE [G26P], -0.276 ± 0.035; as for LEELEQFAKTFKQRRIKLGFTQGDVELAMGKLYGNDFSQTTISRFEALNLSFKNMCKLKPLLEKWLNDAE [G26E], -0.025 ± 0.032. Regarding LEELEQFAKTFKQRRIKLGFTQGDVHLAMGKLYGNDFSQTTISRFEALNLSFKNMCKLKPLLEKWLNDAE [G26H], the abundance fitness was -0.098 ± 0.051.

Take LEELEQFAKTFKQRRIKLGFTQGDVDLAMGKLYGNDFSQTTISRFEALNLSFKNMCKLKPLLEKWLNDAE [G26D]: the abundance fitness was -0.052 ± 0.043. In the case of LEELEQFAKTFKQRRIKLGFTQGDVILAMGKLYGNDFSQTTISRFEALNLSFKNMCKLKPLLEKWLNDAE [G26I], the abundance fitness is -0.076 ± 0.044. For the variant LEELEQFAKTFKQRRIKLGFTQGDVTLAMGKLYGNDFSQTTISRFEALNLSFKNMCKLKPLLEKWLNDAE [G26T], the abundance fitness was -0.038 ± 0.031. As to LEELEQFAKTFKQRRIKLGFTQGDVSLAMGKLYGNDFSQTTISRFEALNLSFKNMCKLKPLLEKWLNDAE [G26S], the abundance fitness amounted to 0.025 ± 0.023. In the case of LEELEQFAKTFKQRRIKLGFTQGDVRLAMGKLYGNDFSQTTISRFEALNLSFKNMCKLKPLLEKWLNDAE [G26R], the abundance fitness is -0.087 ± 0.03.

Take LEELEQFAKTFKQRRIKLGFTQGDVNLAMGKLYGNDFSQTTISRFEALNLSFKNMCKLKPLLEKWLNDAE [G26N]: the abundance fitness is -0.033 ± 0.037. For the variant LEELEQFAKTFKQRRIKLGFTQGDVWLAMGKLYGNDFSQTTISRFEALNLSFKNMCKLKPLLEKWLNDAE [G26W], the abundance fitness was -0.051 ± 0.025.

With LEELEQFAKTFKQRRIKLGFTQGDVCLAMGKLYGNDFSQTTISRFEALNLSFKNMCKLKPLLEKWLNDAE [G26C], the abundance fitness was -0.043 ± 0.034.

As for LEELEQFAKTFKQRRIKLGFTQGDVKLAMGKLYGNDFSQTTISRFEALNLSFKNMCKLKPLLEKWLNDAE [G26K], the abundance fitness was -0.095 ± 0.036. Consider LEELEQFAKTFKQRRIKLGFTQGDVQLAMGKLYGNDFSQTTISRFEALNLSFKNMCKLKPLLEKWLNDAE [G26Q], for which the abundance fitness was -0.014 ± 0.046. Regarding LEELEQFAKTFKQRRIKLGFTQGDVMLAMGKLYGNDFSQTTISRFEALNLSFKNMCKLKPLLEKWLNDAE [G26M], the abundance fitness was -0.04 ± 0.027. Take LEELEQFAKTFKQRRIKLGFTQGDVALAMGKLYGNDFSQTTISRFEALNLSFKNMCKLKPLLEKWLNDAE [G26A]: the abundance fitness was -0.027 ± 0.027. Take LEELEQFAKTFKQRRIKLGFTQGDVFLAMGKLYGNDFSQTTISRFEALNLSFKNMCKLKPLLEKWLNDAE [G26F]: the abundance fitness was -0.082 ± 0.032. Next, LEELEQFAKTFKQRRIKLGFTQGDVYLAMGKLYGNDFSQTTISRFEALNLSFKNMCKLKPLLEKWLNDAE [G26Y]: -0.043 ± 0.041. Next, LEELEQFAKTFKQRRIKLGFTQGDVVLAMGKLYGNDFSQTTISRFEALNLSFKNMCKLKPLLEKWLNDAE [G26V]: -0.005 ± 0.023; LEELEQFAKTFKQRRIKLGFTQGDVLLAMGKLYGNDFSQTTISRFEALNLSFKNMCKLKPLLEKWLNDAE [G26L]: -0.054 ± 0.022. Regarding LEELEQFAKTFKQRRIKLGFTQWDVGLAMGKLYGNDFSQTTISRFEALNLSFKNMCKLKPLLEKWLNDAE [G23W], the abundance fitness is -0.069 ± 0.062.

Consider LEELEQFAKTFKQRRIKLGFTQTDVGLAMGKLYGNDFSQTTISRFEALNLSFKNMCKLKPLLEKWLNDAE [G23T], for which the abundance fitness was -0.004 ± 0.025. Turning to LEELEQFAKTFKQRRIKLGFTQVDVGLAMGKLYGNDFSQTTISRFEALNLSFKNMCKLKPLLEKWLNDAE [G23V], the abundance fitness turned out to be 0.113 ± 0.049. With LEELEQFAKTFKQRRIKLGFTQYDVGLAMGKLYGNDFSQTTISRFEALNLSFKNMCKLKPLLEKWLNDAE [G23Y], the abundance fitness is -0.028 ± 0.037. As to LEELEQFAKTFKQRRIKLGFTQGDVGLHMGKLYGNDFSQTTISRFEALNLSFKNMCKLKPLLEKWLNDAE [A28H], the abundance fitness is -0.059 ± 0.04. As for LEELEQFAKTFKQRRIKLGFTQGDVGLMMGKLYGNDFSQTTISRFEALNLSFKNMCKLKPLLEKWLNDAE [A28M], the figure is -0.043 ± 0.024. For LEELEQFAKTFKQRRIKLGFTQGDVGLVMGKLYGNDFSQTTISRFEALNLSFKNMCKLKPLLEKWLNDAE [A28V], the abundance fitness is -0.052 ± 0.11.

In the case of LEELEQFAKTFKQRRIKLGFTQGDVGLSMGKLYGNDFSQTTISRFEALNLSFKNMCKLKPLLEKWLNDAE [A28S], the abundance fitness was -0.042 ± 0.02.

For LEELEQFAKTFKQRRIKLGFTQGDVGLDMGKLYGNDFSQTTISRFEALNLSFKNMCKLKPLLEKWLNDAE [A28D], the abundance fitness is -0.079 ± 0.11. With LEELEQFAKTFKQRRIKLGFTQGDVGLNMGKLYGNDFSQTTISRFEALNLSFKNMCKLKPLLEKWLNDAE [A28N], the abundance fitness is -0.061 ± 0.03. Consider LEELEQFAKTFKQRRIKLGFTQGDVGLLMGKLYGNDFSQTTISRFEALNLSFKNMCKLKPLLEKWLNDAE [A28L], for which the abundance fitness is -0.04 ± 0.022.

LEELEQFAKTFKQRRIKLGFTQGDVGLEMGKLYGNDFSQTTISRFEALNLSFKNMCKLKPLLEKWLNDAE [A28E]: the abundance fitness was -0.508 ± 0.43. As for LEELEQFAKTFKQRRIKLGFTQGDVGLPMGKLYGNDFSQTTISRFEALNLSFKNMCKLKPLLEKWLNDAE [A28P], the figure is -0.56 ± 0.041; as for LEELEQFAKTFKQRRIKLGFTQGDVGLKMGKLYGNDFSQTTISRFEALNLSFKNMCKLKPLLEKWLNDAE [A28K], -0.008 ± 0.033; as for LEELEQFAKTFKQRRIKLGFTQGDVGLQMGKLYGNDFSQTTISRFEALNLSFKNMCKLKPLLEKWLNDAE [A28Q], 0.048 ± 0.05. On to LEELEQFAKTFKQRRIKLGFTQGDVGLTMGKLYGNDFSQTTISRFEALNLSFKNMCKLKPLLEKWLNDAE [A28T], for which the abundance fitness is -0.01 ± 0.024. On to LEELEQFAKTFKQRRIKLGFTQGDVGLIMGKLYGNDFSQTTISRFEALNLSFKNMCKLKPLLEKWLNDAE [A28I], for which the abundance fitness was -0.054 ± 0.024. Turning to LEELEQFAKTFKQRRIKLGFTQGDVGLFMGKLYGNDFSQTTISRFEALNLSFKNMCKLKPLLEKWLNDAE [A28F], the abundance fitness is -0.11 ± 0.021.
